Laboratory results taken from patent US20090111754.

Key:
p65-P6 = molecular target: T1, p65-P6
T1 chain: NGLLSGDEDFSS

p65-P1 = molecular target: T2, p65-P1
T2 chain: QLRRPSDRELSE

p65-P8 = molecular target: T3, p65-P8
T3 chain: NGLLSGDEDFSA

p65-P7 = molecular target: T4, p65-P7
T4 chain: NGLLAGDEDFSS

B1: IKK complex immunoprecipitated from whole-cell extracts of TNF-treated cells (protein)
chain 1: MERPPGLRPGAGGPWEMRERLGTGGFGNVCLYQHRELDLKIAIKSCRLELSTKNRERWCHEIQIMKKLNHANVVKACDVPEELNILIHDVPLLAMEYCSGGDLRKLLNKPENCCGLKESQILSLLSDIGSGIRYLHENKIIHRDLKPENIVLQDVGGKIIHKIIDLGYAKDVDQGSLCTSFVGTLQYLAPELFENKPYTATVDYWSFGTMVFECIAGYRPFLHHLQPFTWHEKIKKKDPKCIFACEEMSGEVRFSSHLPQPNSLCSLVVEPMENWLQLMLNWDPQQRGGPVDLTLKQPRCFVLMDHILNLKIVHILNMTSAKIISFLLPPDESLHSLQSRIERETGINTGSQELLSETGISLDPRKPASQCVLDGVRGCDSYMVYLFDKSKTVYEGPFASRSLSDCVNYIVQDSKIQLPIIQLRKVWAEAVHYVSGLKEDYSRLFQGQRAAMLSLLRYNANLTKMKNTLISASQQLKAKLEFFHKSIQLDLERYSEQMTYGISSEKMLKAWKEMEEKAIHYAEVGVIGYLEDQIMSLHAEIMELQKSPYGRRQGDLMESLEQRAIDLYKQLKHRPSDHSYSDSTEMVKIIVHTVQSQDRVLKELFGHLSKLLGCKQKIIDLLPKVEVALSNIKEADNTVMFMQGKRQKEIWHLLKIACTQSSARSLVGSSLEGAVTPQTSAWLPPTSAEHDHSLSCVVTPQDGETSAQMIEENLNCLGHLSTIIHEANEEQGNSMMNLDWSWLTE
chain 2: MSWSPSLTTQTCGAWEMKERLGTGGFGNVIRWHNQETGEQIAIKQCRQELSPRNRERWCLEIQIMRRLTHPNVVAARDVPEGMQNLAPNDLPLLAMEYCQGGDLRKYLNQFENCCGLREGAILTLLSDIASALRYLHENRIIHRDLKPENIVLQQGEQRLIHKIIDLGYAKELDQGSLCTSFVGTLQYLAPELLEQQKYTVTVDYWSFGTLAFECITGFRPFLPNWQPVQWHSKVRQKSEVDIVVSEDLNGTVKFSSSLPYPNNLNSVLAERLEKWLQLMLMWHPRQRGTDPTYGPNGCFKALDDILNLKLVHILNMVTGTIHTYPVTEDESLQSLKARIQQDTGIPEEDQELLQEAGLALIPDKPATQCISDGKLNEGHTLDMDLVFLFDNSKITYETQISPRPQPESVSCILQEPKRNLAFFQLRKVWGQVWHSIQTLKEDCNRLQQGQRAAMMNLLRNNSCLSKMKNSMASMSQQLKAKLDFFKTSIQIDLEKYSEQTEFGITSDKLLLAWREMEQAVELCGRENEVKLLVERMMALQTDIVDLQRSPMGRKQGGTLDDLEEQARELYRRLREKPRDQRTEGDSQEMVRLLLQAIQSFEKKVRVIYTQLSKTVVCKQKALELLPKVEEVVSLMNEDEKTVVRLQEKRQKELWNLLKIACSKVRGPVSGSPDSMNASRLSQPGQLMSQPSTASNSLPEPAKKSEELVAEAHNLCTLLENAIQDTVREQDQSFTALDWSWLQTEEEEHSCLEQAS
With B1 the “phosphorylation of peptide substrate in immunocomplex kinase assay” value (“phosphorylation of peptide substrate” for short) (p65-P6) was “precipitated IKK complex can phosphorylate p65-P1 and p65-p6”, the “phosphorylation of peptide substrate” value (p65-P2) was “p65-peptides in which Ser 276, 529 or 536 were mutated into alanine did not undergo phosphorylation by the IKK complex” and the “phosphorylation of peptide substrate” value (p65-P1) was “precipitated IKK complex can phosphorylate p65-P1 and p65-p6”. The “phosphorylation of peptide substrate” value (p65-P8) was “p65-peptides in which Ser 276, 529 or 536 were mutated into alanine did not undergo phosphorylation by the IKK complex” and the “phosphorylation of peptide substrate” value (p65-P7) was “p65-peptides in which Ser 276, 529 or 536 were mutated into alanine did not undergo phosphorylation by the IKK complex”.
